The values below come from patent US20150266936A1.

For assay [1], the target named is αvβ3, αvβ5, and α5β1 integrins on U87MG cells (human) (UniProt P06756). Description: cell-based or functional assay.
For assay [2] the target is unchanged. Description: competition binding on U87MG cells, flow cytometry; competitor 0.25 nM Alexa488-labeled EETI 2.5F; 4 °C, 10 h.
The target is the same in assay [3]. Briefly: ratio of IC50 values, competition binding on U87MG cells.
Assay [4] shares this target. Description: competition binding on U87MG cells, flow cytometry; competitor 5 nM Alexa488-labeled AgRP 7C; 4 °C, 10 h. (In general: Flow cytometry measures light scatter and fluorescence of single cells or particles in a stream.)

Starred links: 1 amine or outer side, 2 acyl side, 3 side chain; linkers in the order of their positions; H or OH if unused. Non-standard residues stand in square brackets, D forms with d. No end group written: not given here. AO = 2-amino-3-(2-(aminooxy)acetamido)propanoic acid, O=C(CON[*:3])NC[C@H](N[*:1])C(=O)[*:2]

Take GCPRPRGDNPPLTCKQDSDCLAGCVCGPNGFCG (designed binder) [EETI 2.5F]: in assay [1], the Adhesion EC50 (nM), U87MG cell adhesion to fibronectin was determined as 180 nM; the inhibition of U87MG proliferation, 10 nM, 72 h (AlamarBlue) came to 15%; the inhibition of U87MG proliferation, 100 nM, 72 h (AlamarBlue) is 30%; the inhibition of U87MG proliferation, 500 nM, 24 h (AlamarBlue) was 37%. In assay [1], this molecule had an inhibition of U87MG proliferation, 500 nM, 48 h (AlamarBlue) of 44%; an inhibition of U87MG proliferation, 500 nM, 72 h (AlamarBlue) of 50%; an inhibition of U87MG proliferation, 1000 nM, 72 h (AlamarBlue) of 60%. For the same molecule, in assay [2], the IC50 worked out at 1.64 nM.

B1: EETI 2.5F Dimer (designed binder)
chain: GCPRPRGDNPPLTC[AO]QDSDCLAGCVCGPNGFCG
modifications: not fully specified (residue 15, bridges); ends and bridges not checked; also: homodimer: two copies joined by oxime-bonded dialdehyde linker at X15
In assay [1], B1 showed an Adhesion EC50 (nM), U87MG cell adhesion to fibronectin of 8 nM; a fold more effective than the monomer in preventing U87MG cell adhesion of 100 fold; a fold more potent than Cilengitide at inhibiting U87MG cell proliferation of 100 fold; an inhibition of U87MG proliferation, 10 nM, 72 h (AlamarBlue) of 28%. In assay [1], this molecule came in with an inhibition of U87MG proliferation, 100 nM, 72 h (AlamarBlue) of 52%; an inhibition of U87MG proliferation, 500 nM, 24 h (AlamarBlue) of 53%; an inhibition of U87MG proliferation, 500 nM, 48 h (AlamarBlue) of 68%; an inhibition of U87MG proliferation, 500 nM, 72 h (AlamarBlue) of 69%. The inhibition of U87MG proliferation, 1000 nM, 72 h (AlamarBlue) in assay [1] stood at 70%. The fold increase of apparent binding affinity compared to the monomer in assay [3] was found to be 46 fold. This molecule had a half-maximal inhibitory concentration (IC50) in assay [2] of 0.036 nM.

In turn, GCVRLHESCLGQQVPCCDPAATCYCYGRGDNDLRCYCR (designed binder, not fully specified (bridges); cysteine pairing not given here) [AgRP 7C] had an IC50 in assay [4] of 13 nM.

Consider GCPRPRGDNPPLTC[AO]QDSDCLAGCVCGPNGFCG (designed binder, disulfide (positions not given here)) [EETI 2.5F_AO], for which the IC50 in assay [2] is 1.57 nM.

B2: AgRP 7C Dimer (designed binder)
chain: GCVRLHESCLGQQVPCCDPAATCYCYGRGDNDLRCYC[AO]
modifications: not fully specified (residue 38, bridges); ends and bridges not checked; also: homodimer: two copies joined by oxime-bonded dialdehyde linker at X38
Turning to B2, the fold increase of apparent binding affinity compared to the monomer in assay [3] amounted to 4 fold. Also, the IC50 in assay [4] was 3.2 nM.

One may read the IC50 as the point on the concentration scale where inhibition reaches its midpoint.
